Data from patent US20230029453A1 (Janssen / Centocor, published 2023).

Experiments:
Test in all cases: UV peptide exchange; HLA class I ELISA
HLA-B*07:02 [1] = target: T1, HLA-B*07:02 (human, biotinylated heavy chain)
T1 construct: Conditional HLA class I complex as for m1
Procedure: (§1) The UV control represented UV-irradiation of conditional HLA class I complex in the absence of a rescue peptide.
(§2) The HLA class I ELISA is an enzyme immunoassay based on the detection of beta2-microglobulin (B2M) of (peptide-stabilized) HLA class I complexes. To this end streptavidin was bound onto polystyrene microtiter wells. […] Subsequently, horseradish peroxidase (HRP)-conjugated antibody to human B2M was added. […] In the latter case B2M was removed during the washing step. After removal of non-bound HRP conjugate by washing, a substrate solution was added to the wells. A coloured product formed in proportion to the amount of intact HLA complex present in the samples. After the reaction was terminated by the addition of a stop solution, absorbance was measured in a microtiter plate reader.

HLA-A*02:01 [2] = target: T2, HLA-A*02:01 (human, biotinylated heavy chain)
T2 construct: Conditional HLA class I complex as for m1
Procedure: as §1, §2

HLA-B*08:01 [3] = target: T3, HLA-B*08:01 (human, biotinylated heavy chain)
T3 construct: Conditional HLA class I complex as for m1
Procedure: as §1, §2

HLA-A*24:02 [4] = target: T4, HLA-A*24:02 (human, biotinylated heavy chain)
T4 construct: Conditional HLA class I complex as for m1
Procedure: as §1, §2

HLA-B*27:05 = target: T5, HLA-B*27:05 (human, biotinylated heavy chain)
T5 construct: Conditional HLA class I complex as for m1
Procedure: as §2

HLA-A*01:01 [5] = target: T6, HLA-A*01:01 (human, biotinylated heavy chain)
T6 construct: Conditional HLA class I complex (heavy chain + B2M) first held by a UV-labile peptide; the tested peptide is exchanged in after UV cleavage
Procedure: as §1, §2

HLA-A*03:01 = target: T7, HLA-A*03:01 (human, biotinylated heavy chain)
T7 construct: Conditional HLA class I complex as for m1
Procedure: as §2
(§3) Higher percentages correspond to stronger binding to the HLA allele.

HLA-A*02:01 [6] = target: T2, HLA-A*02:01; remark: listed apart in the source
Procedure: as §2, §3
HLA-B*08:01 [7] = target: T3, HLA-B*08:01; remark: listed apart in the source
Procedure: as §2, §3
HLA-A*01:01 [8] = target: T6, HLA-A*01:01; remark: listed apart in the source
Procedure: as §2, §3
HLA-B*07:02 [9] = target: T1, HLA-B*07:02; remark: listed apart in the source
Procedure: as §2, §3
HLA-A*24:02 [10] = target: T4, HLA-A*24:02; remark: listed apart in the source
Procedure: as §2, §3

Binder	exchange rate with Pos (HLA-A*03:01) [%]	exchange rate with Pos (HLA-A*02:01 [6]) [%]	exchange rate with Pos (HLA-B*08:01 [7]) [%]	exchange rate with Pos (HLA-A*01:01 [8]) [%]	exchange rate with Pos (HLA-B*07:02 [9]) [%]	exchange rate with Pos (HLA-A*24:02 [10]) [%]	other results
LIAMDSAIT [Peptide 10, 9-mer LIAMDSAIT derived from P22 (SEQ ID NO: 1003)]							Average % (HLA-B*07:02 [1]): 9.5%; Exch I (%) (HLA-B*07:02 [1]): 9.8%; Exch II (%) (HLA-B*07:02 [1]): 9.2%; Average % (HLA-A*02:01 [2]): 6.9%; Exch I (%) (HLA-A*02:01 [2]): 6.7%; Exch II (%) (HLA-A*02:01 [2]): 7.1%; Average % (HLA-B*08:01 [3]): 7.3%; Exch I (%) (HLA-B*08:01 [3]): 6.9%; Exch II (%) (HLA-B*08:01 [3]): 7.7%; Average % (HLA-A*24:02 [4]): 4.8%; Exch I (%) (HLA-A*24:02 [4]): 4.6%; Exch II (%) (HLA-A*24:02 [4]): 5.1%; Average % (HLA-B*27:05): 7.3%; Exch I (%) (HLA-B*27:05): 8.5%; Exch II (%) (HLA-B*27:05): 6.1%; Average % (HLA-A*01:01 [5]): 5.8%; Exch I (%) (HLA-A*01:01 [5]): 6.2%; Exch II (%) (HLA-A*01:01 [5]): 5.4%
NSKMALNSL (Synthetic 9-mer) [P35 9-mer NSKMALNSL (TMPRSS2-ERG fusion)]	4.2	12.5	13.7	2.5	12.1	0.2	
NMVENGCYL (Synthetic 9-mer) [P59 9-mer NMVENGCYL (FOXA1 F254V)]	4.5	11.9	5.5	2.2	7.5	-0.5	
IQYSCMGLM (Synthetic 9-mer) [P50 9-mer IQYSCMGLM (AR W742C)]	5.5	8.8	4.7	2.3	10.4	0.1	
FFKRAAEGF (Synthetic 9-mer) [P77 9-mer FFKRAAEGF (AR-V3)]	2.8		3.4	1.9	14.2	1.7	
GVLRRLLCR (Synthetic 9-mer) [P37 9-mer GVLRRLLCR (TSTD1-F11R fusion)]	6.4	12.5	3.3	1.4		-0.1	
STRRAVRRM (Synthetic 9-mer) [P16 9-mer STRRAVRRM (MSMB-NCOA4 fusion)]	6.1	10.4	6.2	5.5	13.7	0.8	
FPVGAEGTF (Synthetic 9-mer) [P27 9-mer FPVGAEGTF (FAM126B-ORC2 fusion)]	4.5	10	6.4	4.8	7.8	0.7	
